US20080274954

Target: Cdc42 (SEQ ID NO: 12) expressed as an N-terminal 3x FLAG-tagged protein

B1: sh04009DH/PH protein (SEQ ID NO: 6) with FLAG-tag (3x) at the C-terminal (protein)
chain: MEELSENSSSTPSEEQDEEASQSRHRHCENKQQMRTNVIREIMDTERVYIKHLRDICEGYIRQCRKHTGMFTVAQLATIFGNIEDIYKFQRKFLKDLEKQYNKEEPHLSEIGSCFLQNQEGFAIYSEYCNNHPGACLELANLMKQGKYRHFFEACRLLQQMIDIAIDGFLLTPVQKICKYPLQLAELLKYTTQEHGDYSNIKAAYEAMKNVACLINERKRKLESIDKIARWQVSIVGWEGLDILDRSSELIHSGELTKITKQGKSQQRTFFLFDHQLVSCKKDLLRRDMLYYKGRLDMDEMELVDLGDGRDKDCNLSVKNAFKLVSRTTDEVYLFCAKKQEDKARWLQACADERRRVQEDKEMGMEISENQKKLAMLNAQKAGHGKSKGYNRCPVAPPHQGLHPIHQRHITMPTSVPQQQVFGLAEPKRKSSLFWHTFNRLTPFRK
effector pull-down assay: amount of active (GTP-bound) Cdc42 bound to the PAK-1 effector bead, Western blot with anti-FLAG antibody: In the cell lysate (lane 4 in FIG. 2) prepared from the cells in which the sh04009DH/PH protein was co-expressed with Cdc42, the band was detected more strongly that in the cell lysate (lane 2 in FIG. 2) prepared from the cells in which only Cdc42 was expressed
